# Measured values reported in article PMC3949714 (PLoS ONE, 2014).
# What was measured:
# [1] = Biotransformation in homogenised inflamed tissue at pH 5.5 (LC/MS, mean residence time); conditions: MES pH 5.5, 37°C, 120 min, AUMC/AUC of LC/MS peak intensity
# [2] = RP-HPLC retention time (read by the paper as polarity); assay type: physicochemical; conditions: water/acetonitrile gradient with 0.1% formic acid, MS TIC detection
# Protocol: An Agilent binary HPLC composing of an Agilent 1100 LC pump, an Agilent 1100 well plate auto-sampler (Agilent Technologies, Santa Clara, CA, USA) and a Jupiter 5 μ (C4, 300 A, 150×2.00 mm, 5 μ) RP HPLC column (Phenomenex, Torrance, CA, USA) were used for separation. The mobile phase flow rate was 200 µl/min and the volume of injection was 20 µL. The separations were performed using a binary solvent gradient; water (Milli-Q; Millipore Corporation, Bedford, MA) which contained 0.1% v/v formic acid was used as the solvent A and acetonitrile (Merck KGaA, Darmstadt, Germany) which contained 0.1% v/v formic acid (Nuplex industries Pty Ltd. (NSW, Australia) was used as the solvent B. The chromatographic separation was achieved using the gradient shown in Table 1.
# An API 3000 tandem mass spectrometer equipped with a turbo ion spray was used as the detector. Detection was performed in total ion current (TIC) mode (MS1/Q1), in positive mode, within the range 200–3000 amu. The data were acquired and processed by Analyst 1.5 software (Applied Biosystems, Foster city, CA, USA). Mass spectra were obtained using: declustering potential (DF) of 16 V, focusing potential (FP) of 120 V, Entrance potential (EP) of 10 V, and Ion spray voltage (IS) of 5000 V. Structure identity of fragments was performed using the respective mass/charge (m/z) values of each peptide metabolite. Direct flow injections were carried out using Model 11 plus Harvard Syringe pump (Harvard Apparatus Inc, Holliston, MA, USA).
# [3] = incubation of BE 1-17 (115 µM) in rat inflamed tissue homogenate
# [4] = incubation of BE 1-17, Jupiter C4 column
# [5] = incubation of BE 1-31 (115 µM) in rat inflamed tissue homogenate
# [6] = incubation of BE 1-31, Jupiter C4 300 A column, 200 µl/min
# [7] = incubation of BE 1-11 (115 µM) in rat inflamed tissue homogenate
# [8] = incubation of BE 1-13 (115 µM) in rat inflamed tissue homogenate
# [9] = incubation of BE 1-11, Jupiter C4 column
# [10] = incubation of BE 1-13, Jupiter C4 column
Substance,"MRT [1, 3]","RT [2, 4] [min]","RT [2, 6] [min]",also measured
"BE 1-14: beta-endorphin N-terminal fragment, residues 1-14 (YGGFMTSEKSQTPL; Beta-endorphin; UniProt P01189 237-250, looked up, fragment)",13.8,21.13,,
"BE 1-15: beta-endorphin N-terminal fragment, residues 1-15 (YGGFMTSEKSQTPLV; Beta-endorphin; UniProt P01189 237-251, looked up, fragment)",8.3,22.33,24.2,"MRT [1, 5]: 12"
"BE 1-16: beta-endorphin N-terminal fragment, residues 1-16 (YGGFMTSEKSQTPLVT; Beta-endorphin; UniProt P01189 237-252, looked up, fragment)",7.6,21.38,23.2,"MRT [1, 5]: 9.8"
"BE 2-9: des-tyrosine beta-endorphin fragment, residues 2-9 (GGFMTSEK; Beta-endorphin; UniProt P01189 238-245, looked up, fragment)",21,15.87,18.38,"MRT [1, 7]: 17; MRT [1, 8]: 19.8; MRT [1, 5]: 20; Rt [2, 9]: 15.8 min; Rt [2, 10]: 15.8 min"
"BE 2-11: des-tyrosine beta-endorphin fragment, residues 2-11 (GGFMTSEKSQ; Beta-endorphin; UniProt P01189 238-247, looked up, fragment)",31.8,15.52,17.5,"MRT [1, 7]: 15; MRT [1, 8]: 20.2; MRT [1, 5]: 37; Rt [2, 9]: 15.7 min; Rt [2, 10]: 15.7 min"
"BE 2-15: beta-endorphin fragment, residues 2-15 (GGFMTSEKSQTPLV; Beta-endorphin; UniProt P01189 238-251, looked up, fragment)",,21.33,,
"BE 3-12: beta-endorphin fragment, residues 3-12 (GFMTSEKSQT; Beta-endorphin; UniProt P01189 239-248, looked up, fragment)",,20.53,,
"BE 3-14: beta-endorphin fragment, residues 3-14 (GFMTSEKSQTPL; Beta-endorphin; UniProt P01189 239-250, looked up, fragment)",,20.1,,
"BE 4-14: beta-endorphin fragment, residues 4-14 (FMTSEKSQTPL; Beta-endorphin; UniProt P01189 240-250, looked up, fragment)",,18.68,,
"BE 4-15: beta-endorphin fragment, residues 4-15 (FMTSEKSQTPLV; Beta-endorphin; UniProt P01189 240-251, looked up, fragment)",,20.13,,
"BE 4-16: beta-endorphin fragment, residues 4-16 (FMTSEKSQTPLVT; Beta-endorphin; UniProt P01189 240-252, looked up, fragment)",,19.32,,
"BE 6-14: beta-endorphin fragment, residues 6-14 (TSEKSQTPL; Beta-endorphin; UniProt P01189 242-250, looked up, fragment)",,14.62,,
"BE 7-14: beta-endorphin fragment, residues 7-14 (SEKSQTPL; Beta-endorphin; UniProt P01189 243-250, looked up, fragment)",,14.92,,
"BE 7-16: beta-endorphin fragment, residues 7-16 (SEKSQTPLVT; Beta-endorphin; UniProt P01189 243-252, looked up, fragment)",,16,,
"BE 8-14: beta-endorphin fragment, residues 8-14 (EKSQTPL; Beta-endorphin; UniProt P01189 244-250, looked up, fragment)",,16.27,,
"BE 29-31: beta-endorphin fragment, residues 29-31 (KGE; Beta-endorphin; UniProt P01189 265-267, looked up, fragment)",,,5.4,
